Biological target: the molecule itself
Experiment: thioflavin T

| Protein | binding result |
| --- | --- |
| Ac-DNIKHVPGVGSVQIVYK-NH2 [R2R3-G303V peptide fragment] | binds |
| Ac-DNIKHVPGGGNVQIVYK-NH2 [R2R3-S305N peptide fragment] | binds |
| Ac-DNIKHIPGGGSVQIVYK-NH2 [R2R3-V300I peptide fragment] | binds |
| Ac-VQIVYK-NH2 [306VQIVYK311 hexapeptide] | binds |
| Ac-DNIKHVSGGGSVQIVYK-NH2 [R2R3-P301S peptide fragment] | binds |
| Ac-DNIKHVLGGGSVQIVYK-NH2 [R2R3-P301L peptide fragment] | binds |

Source: article doi:10.1101/330266 (bioRxiv, 2019)
